Data as given in patent US11402384B2 (Duke University, priority 2015, dated 2022).
Numbering of substitutions follows the chain as printed. In names and notes the source's numbering stands.

B1: dmGBP3: glucose-binding protein from Deinococcus maricopensis, SEQ ID NO: 11 (protein)
chain: MKLEIFSWWSGDEGPALEALVKLYKQKYPSVDVVNATVAGGAGTNAKAVLKTRMLGGDPPDSFQAHAGQELIGTWVVANRMEDLSSLFKSEGWTTKFPKDLLPLISSKGGIWSVPVNVHRSNVMWYIPANLKKWGVTAPKTWDQFLTTAKTLKTKNVTPLALGENWTQQHLWESVAVGTLGAQGWQNLWSGKLKFTDPKVVKVWDTFGKVLDATNKDASGLSWQQATDRVVNGQAAFNIMGDWAAGYLSTTKKLKPGTGFGWAPSPSTSGTFIFLADSFGLPKGAKDRAEALSWLKLLGSKQGQDTFNPLKGSIAARVDSDLSKYSTYSQSAAKDWKSNKIVGSLTHGAVAPESFTSTFGTVIDAFVASRNAQVAAATTQQLADKAGLGKGGSHHHHHH
modifications: dmGBP3 (with signal peptide replaced with M and a GGSHHHHHH at C-terminus)
B2: ttGBP1: glucose-binding protein from Thermus thermophilus, SEQ ID NO: 9 (protein)
chain: MKLEIFSWWAGDEGPALEALIRLYKQKYPGVEVINATVTGGAGVNARAVLKTRMLGGDPPDTFQVHAGMELIGTWVVANRMEDLSALFRQEGWLQAFPKGLIDLISYKGGIWSVPVNIHRSNVMWYLPAKLKGWGVNPPRTWDKFLATAQTLKQKGLEAPLALGENWTQQHLWESVALAVLGPDDWNNLWNGKLKFTDPKAVRAWEVFGRVLDAANKDAAGLSWQQAVDRVVQGKAAFNIMGDWAAGYMTTTLKLKPGTDFAWAPSPGTQGVFMMLSDSFGLPKGAKNRQNAINWLRLVGSKEGQDTSNPLKGSIAARLDSDPSKYNAYGQSAMRDWRSNRIVGSLVHGAVAPESFMSQFGTVMEIFLQTRNPQAAANAAQAIADQVGLGRLGQHHHHHH
modifications: ttGBP1 (with signal peptide replaced with M and a HHHHHH at C-terminus)
B3: W244F A: tsGBP2.13C.W244F (SEQ ID NO: 48) Acrylodan conjugate (conjugate)
chain: MKLEIFSWWAGDCGPALEALIRLYKQKYPGVEVINATVTGGAGVNAKAVLKTRMLGGDPPDTFQVHAGQELIGTWVVADRMEDLTSLFRQEGWLQAFPKGLIDLLSYKGGIWSVPVNIHRSNVMWYIPAKLKEWGVTPPKTWAEFLATAQTLKRKGLEAPLALGENWTQQHLWESVALATLGADGWNNLWSGKLKFTDPKAVAVWETFGKVLDAANKDAAGLSWQQAVDRVVQGKAAFNIMGDFAAGYMSTTLKLKPGTDFAWTPSPGTSGIFMMLSDSFGLPKGAKNRQNAINWLKLVGSKEGQDTFNPLKGSIAARLDSDPAKYNAYGQSAMKDWKSNRIVGSLVHGAVAPESFMSQFGTVMEIFLQSRNPQAAANAAQAIANQVGLGRGGSHHHHHH
modifications: Acrylodan conjugate; tsGBP2.13C.W244F (13C, 244F double substitution mutant with signal peptide replaced with M and a GGSHHHHHH at C-terminus)
B4: tsGBP2: glucose-binding protein from Thermus scotoductus, SEQ ID NO: 10 (protein)
chain: B3 chain with C13E, F244W
modifications: tsGBP2 (with signal peptide replaced with M and a GGSHHHHHH at C-terminus)

How the values were obtained:
[1] = ligand-free protein; SYPRO Orange, Roche LightCycler
Procedure: Eight homologs that were predicted to be glucose-binding proteins (FIG. 4, Table 3) were selected to probe different degrees of sequence identity to the ttGBP1 seed, and their glucose-binding properties were determined experimentally. These experiments comprised four successive steps: • 1. Synthetic gene construction. The amino acid sequence of the homology leads were backtranslated into DNA sequences. These were optimized for directing heterologous cytoplasmic expression of the protein homologues in E. coli, using either the OrfOpt or OrfMorph programs. These programs predict mRNA sequences that direct high-level protein expression in E. coli. The predicted gene sequences were assembled de novo from synthetic oligonucleotides. • 2. Heterologous protein expression of the homologues in E. coli. Plasmids carrying the synthetic expression constructs (see above) were transformed into KRX competent cells (Promega). Protein production was induced in bacterial cultures of these cultures, as described in the Materials and Methods. • 3. Purification of successfully expressed protein using immobilized metal affinity chromatography. • 4. Verification of glucose binding. Determination of the glucose-binding properties of the purified proteins using a thermal stability shift assay.
Analysis of glucose-binding properties using thermal melts. The thermal stability of purified GBP candidate proteins was determined by measuring the temperature-dependence of the fluorescence signal of an extrinsically added dye, SYPRO, using a Roche LightCycler (Layton and Hellinga, 2010, Biochemistry, 49, 10831-41). The total fluorescence intensity, S, is given by S=βFfF+βUfU 11 where fF and fU are the fractions of protein in the folded and unfolded states, respectively, and βF and βU the fluorescence baselines of these two states. To get the fractions of the two states, we have
[formula] where KU(T) is the temperature-dependent unfolding equilibrium constant, which by the van't Hoff approximation is given by
[formula] Where T is the temperature, Tm, the unfolding reaction transition mid-point temperature, and ΔHU the enthalpy of unfolding.

[2] = Immobilization on Ni-NTA magnetic beads, drying and accelerated aging of sensor; type: physicochemical
Procedure: The magnetic beads coated with immobilized tsGBP13C_ 244F.Acrylodan were dried by incubation at 50° C. for 20 minutes, using an aqueous ammonium bicarbonate buffer. […] The dried beads were aged in situ inside fully assembled sample-handling cartridges by incubation for up to 7 days at 25° C., 37° C., and 50° C. in the dark. Fluorescence and glucose-responsive properties were tested in cartridges stored for 1, 2 and 7 days. […] The tsGBP2-based FRSs therefore are sufficiently robust to be handled at ambient temperatures in a desiccated state, greatly simplifying manufacturing, distribution, and long-term storage conditions.

Molecule | Thermostability ^apoTm [1] [°C] | stability properties upon rehydration after drying ([2]; beads dried at 50° C. for 20 minutes, determined up to 100° C.) | fluorescence ratio in the absence of glucose and glucose affinities after aging ([2]; dried beads stored 1, 2 and 7 days at 25° C., 37° C., and 50° C. in the dark) | protein stability on beads compared with solution ([2]; immobilized via C-terminal hexa-histidine tag on Ni-NTA magnetic beads, measured up to 100° C.)
B1 | 47 |  |  | 
B2 | >100 |  |  | 
B3 |  | recovered upon rehydration | remained approximately unchanged | not perturbed
B4 | >100 |  |  | 
